The values below are quoted from earlier work in PMC11533685.

A word on the Kd: it is the free concentration of one partner at which half of the binding sites on the other are occupied at equilibrium, for simple one-to-one binding.

The target in data set [1] is CD58 ECD (Homo sapiens) (UniProt P19256). Put plainly: SPR. In general terms: In SPR one partner is held on a chip, and binding of the other changes the refractive index at the surface.
In data set [2] the target is CD200R ECD (UniProt Q8TD46). Put plainly: SPR.
Chain of UniProt Q8TD46 (Q8TD46 25-265): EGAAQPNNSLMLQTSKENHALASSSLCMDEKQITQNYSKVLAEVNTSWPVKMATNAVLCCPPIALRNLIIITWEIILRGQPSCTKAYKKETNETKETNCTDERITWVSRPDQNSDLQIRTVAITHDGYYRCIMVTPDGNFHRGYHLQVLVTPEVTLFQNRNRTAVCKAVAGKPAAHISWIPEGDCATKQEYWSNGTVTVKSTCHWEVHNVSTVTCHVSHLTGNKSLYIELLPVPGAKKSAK

Chain of UniProt P19256 (P19256 29-215): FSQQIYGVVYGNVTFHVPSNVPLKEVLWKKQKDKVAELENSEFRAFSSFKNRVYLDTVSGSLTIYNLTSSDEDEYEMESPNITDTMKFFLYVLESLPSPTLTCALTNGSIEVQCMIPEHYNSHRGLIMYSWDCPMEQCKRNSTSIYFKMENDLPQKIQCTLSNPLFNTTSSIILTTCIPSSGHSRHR

Take CD2 ECD (from UniProt P06729): in data set [1], the Kd is 10 µM.

Turning to CD200 ECD (from UniProt P41217), in data set [2], the Kd was 1 µM.
